Measurements from PMC6382854 (2019).
Numbering of substitutions follows the chain as printed. One block for each binder: values may come before it.

Target: taxol-stabilized microtubules (polymerized porcine tubulin) (porcine, UniProt P02550 1-451; P02554 1-445)
Sequence (P02550 whole entry, chain 1 of 2): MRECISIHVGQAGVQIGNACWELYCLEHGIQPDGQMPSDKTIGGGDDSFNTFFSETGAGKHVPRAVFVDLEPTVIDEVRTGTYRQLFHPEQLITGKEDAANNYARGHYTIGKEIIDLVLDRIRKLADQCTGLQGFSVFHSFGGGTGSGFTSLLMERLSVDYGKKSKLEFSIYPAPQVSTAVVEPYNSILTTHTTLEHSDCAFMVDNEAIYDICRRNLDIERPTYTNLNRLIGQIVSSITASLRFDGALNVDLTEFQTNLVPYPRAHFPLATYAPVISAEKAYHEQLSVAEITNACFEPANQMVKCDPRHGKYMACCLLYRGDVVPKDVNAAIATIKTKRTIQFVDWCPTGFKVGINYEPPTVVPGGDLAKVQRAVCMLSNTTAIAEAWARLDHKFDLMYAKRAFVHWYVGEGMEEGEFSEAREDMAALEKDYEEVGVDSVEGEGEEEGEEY
Sequence (P02554 whole entry, chain 2 of 2): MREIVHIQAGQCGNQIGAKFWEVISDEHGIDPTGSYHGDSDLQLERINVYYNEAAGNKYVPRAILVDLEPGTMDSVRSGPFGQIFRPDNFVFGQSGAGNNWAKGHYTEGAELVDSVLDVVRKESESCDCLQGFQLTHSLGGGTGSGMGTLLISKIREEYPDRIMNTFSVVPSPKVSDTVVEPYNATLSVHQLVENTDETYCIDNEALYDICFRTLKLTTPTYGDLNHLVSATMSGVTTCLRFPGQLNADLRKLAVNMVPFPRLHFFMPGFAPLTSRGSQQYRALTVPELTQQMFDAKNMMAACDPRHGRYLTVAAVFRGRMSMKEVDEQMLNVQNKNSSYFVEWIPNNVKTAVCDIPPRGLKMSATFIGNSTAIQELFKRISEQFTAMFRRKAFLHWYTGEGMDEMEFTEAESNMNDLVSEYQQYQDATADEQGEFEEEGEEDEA

Kd: 6.9 µM
B1: 6xHis-tagged CC1ΔC223 (cytosolic N-terminal part of COMPANION OF CELLULOSE SYNTHASE 1, residues 1-120) (domain or fragment)
chain: MHAKTDSEVTSLAASSPARSPRRPVYYVQSPSRDSHDGEKTATSFHSTPVLSPMGSPPHSHSSMGRHSRESSSSRFSGSLKPGSRKVNPNDGSKRKGHGGEKQWKECAVIEEEGLLDDGD

Kd: 16.3 µM
B2: 6xHis-tagged CC1ΔC223YYAA (domain or fragment)
chain: B1 chain with Y26A, Y27A
